In the assay the target is SARS-CoV-2 스파이크 D19 (VSV 슈도바이러스) (SARS-CoV-2) (UniProt P0DTC2). Description: cell-based or functional assay.

Substance S2D106-LS (antibody) gave an EC50 (neutralisation, interpolated) of 3.6 ng/mL; an EC90 (neutralisation, interpolated) of 15.4 ng/mL; an IC50 (neutralisation) of 3.38 ng/mL.
